Like-named read-outs stand apart in the source and are kept apart here.
B1: Atg17 (recombinant, His-MBP tag removed by TEV), in the untagged Atg17-Atg31-Atg29 complex (natural protein, S. cerevisiae, UniProt Q06410 1-417, looked up)
chain: MNEADVTKFVNNARKTLTDAQLLCSSANLRIVDIKKKLSSWQLSISKLNFLIVGLRQQGKFLYTILKEGIGTKLIQKQWNQAVLVVLVDEMKYWQYEITSKVQRLDGIVNELSISEKDDTDPSKLGDYISRDNVNLLNDKLKEVPVIERQIENIKLQYENMVRKVNKELIDTKLTDVTQKFQSKFGIDNLMETNVAEQFSRELTDLEKDLAEIMNSLTQHFDKTLLLQDKKIDNDEREELFKVVQGDDKELYNIFKTLHEVIDDVDKTILNLGQFLQAKIKEKTELHSEVSEIINDFNRNLEYLLIFKDISNLIDSFKNSCTQDIQTTKELCEFYDNFEESYGNLVLEAKRRKDVANRMKTILKDCEKQLQNLDAQDQEERQNFIAENGTYLPETIWPGKIDDFSSLYTLNYNVKNP
B2: His-MBP-tagged Atg17 (natural protein, S. cerevisiae, UniProt Q06410 1-417, looked up)
chain: B1 chain

Assays:
[1] = biological target: the molecule itself; assay: negative-stain single-particle EM
[2] = biological target: the molecule itself; assay: negative-stain single-particle EM; remark: listed apart in the source

| Protein | stoichiometry N [1] | stoichiometry N [2] |
| --- | --- | --- |
| B1 | 2 |  |
| B2 |  | 2 |

From paper PMC5871871 (Autophagy, 2013)
